Assay results reported in publication PMC6139261 (Archives of biochemistry and biophysics, 2018).
The star is where a group is joined. FITC = O=C1OC2(c3ccc(O)cc3Oc3cc(O)ccc32)c2ccc(NC(=S)*)cc21

Assays:
[1] = target: substrate-trapping ClpB variant (E279Q/E678Q) (Escherichia coli, UniProt P63284, E279Q/E678Q); assay type: binding; conditions: ClpB with ATP, buffer A, room temperature
[2] = target: ATP-hydrolysis deficient substrate-trapping ClpB variant (E279Q/E678Q) (Escherichia coli, UniProt P63284 1-857, E279Q | E678Q); experiment: fluorescence polarisation

Molecule	anisotropy change of free label with ClpB [1]	Kd [2] [nM]
O=C1OC2(c3ccc(O)cc3Oc3cc(O)ccc32)c2ccccc21 [fluorescein]	did not affect the anisotropy	
{FITC}-KTLFISR-NH2 [peptide B1T]		329 ± 39
{FITC}-QGQFRNLRRKQLWTFFLNKK-NH2 [peptide B2A]		10.2 ± 0.8
{FITC}-QQFRNRRKLTFLKKLGWFNQ-NH2 [peptide B2B]		11.5 ± 0.52
{FITC}-RLGWFNQ-NH2 [peptide B2T2]		> 1000
FHAWQHQGKTLAISRKTYRI (FITC on the N-terminus; C-terminal amide) [peptide B1N]		7.26 ± 0.32
{FITC}-AHAWQHQGKTLFISRKTYRI-NH2 [peptide B1]		46.8 ± 1.5
{FITC}-QLWQGQFRNLRRKTFFKKLN-NH2 [peptide B2N]		17.5 ± 0.92
{FITC}-KLFFNLR-NH2 [peptide B2T1]		912 ± 231
